The values that follow are results of earlier work, collected in publication PMC5520056, “Cryo-EM structures of the ATP-bound Vps4^E233Q hexamer and its complex with Vta1 at near-atomic resolution” (Nature Communications, 2017).

The target in this data set is Vta1 VSL (Saccharomyces cerevisiae) (UniProt Q06263).
Vta1 VSL (Saccharomyces cerevisiae), sequence (Q06263 280-330): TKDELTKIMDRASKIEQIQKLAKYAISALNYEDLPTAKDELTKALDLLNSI

Vps4 β-domain, sequence (P52917 351-397): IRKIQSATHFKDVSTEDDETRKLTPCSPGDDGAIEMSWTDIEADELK

Regarding Vps4 β-domain (from UniProt P52917), the Kd was 85 µM.

Broadly, the Kd is the equilibrium constant for the complex coming apart.
